Our source for the Kd values is article PMC7102968.

The target in this data set is TetR-Y42A Y42A;C68S;C88N;C121T;C144S;internal_change (UniProt P04483). The experiment in a line: ITC. As to conditions: ITC: 20 mM potassium phosphate pH 7.4, 50 mM NaCl, 25 C; EMSA: 50 mM Tris-HCl pH 8.0, 10 mM MgCl2, 25 mM NaCl, 25 ug/ml yeast tRNA, room temperature; SEC ….

In turn, “GGCCGGAGAAUGUUAUGGCGCGAAAGCGCAGAGAAAACCGGUC [TetR-binding aptamer K1]” gave a Kd of 13.9 µM.
